Measurements taken from patent publication US20090274695A1 (published 2009).
Each block holds one binder with its values, some of them ahead of it.

Assays:
[1] = biological target: T1, Mouse uPAR, full-length, on transfected COS cells (mouse, UniProt P35456 24-298); assay: AP fusion protein on COS cells transfected with murine uPAR, colorimetric AP assay; bar pattern assigned by bar order and by paragraph 233
T1 construct: whole, on cells; also called murine uPAR
T1 sequence (looked up): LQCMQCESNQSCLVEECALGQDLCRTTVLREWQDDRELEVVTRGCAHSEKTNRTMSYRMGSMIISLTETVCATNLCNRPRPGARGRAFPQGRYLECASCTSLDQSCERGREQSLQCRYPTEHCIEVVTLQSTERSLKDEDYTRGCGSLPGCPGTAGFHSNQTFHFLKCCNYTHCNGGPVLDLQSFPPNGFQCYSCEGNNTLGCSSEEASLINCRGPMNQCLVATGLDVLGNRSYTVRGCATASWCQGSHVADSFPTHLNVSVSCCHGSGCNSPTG

[2] = biological target: T2, unnamed immobilized partner drawn in Figure 10B; assay: BIAcore, two-step binding scheme drawn beside the numbers; immobilized partner not named
T2 construct: It is drawn as a chain of three ovals held by a small tag on a cross-shaped capture molecule on the surface; This would fit biotinylated uPAR on avidin, but it carries no label, so it is not assigned to m7 or m13

[3] = biological target: T2, unnamed immobilized partner drawn in …; assay: BIAcore, two-step binding scheme. The line is printed 'ka1' a second time, but the unit 1/s and the scheme's kd1 mark it as the dissociation rate of the first step. Immobilized partner not named
[4] = biological target: T3, Recombinant human uPAR (R&D Systems), immobilized on a CM5 sensor chip (human, UniProt Q03405 23-303, limits assumed); assay: SPR equilibrium binding, Langmuir single-site fit, three sets of readings; SPR equilibrium binding, uPAR immobilized on the chip
T3 construct: Bought protein, amine-coupled to the chip; also called immobilized uPAR

[5] = biological target: T4, Human uPAR (urokinase-type plasminogen activator receptor), full-length, on transfected COS or CHO cells (human, UniProt Q03405 23-305); assay: homologous competition of purified CYTL1 against CYTL1-AP on uPAR-transfected cells, three independent experiments
T4 construct: whole, on cells; GPI-anchored on the cell surface; also called uPAR-transfected cells
T4 sequence (Q03405 23-305): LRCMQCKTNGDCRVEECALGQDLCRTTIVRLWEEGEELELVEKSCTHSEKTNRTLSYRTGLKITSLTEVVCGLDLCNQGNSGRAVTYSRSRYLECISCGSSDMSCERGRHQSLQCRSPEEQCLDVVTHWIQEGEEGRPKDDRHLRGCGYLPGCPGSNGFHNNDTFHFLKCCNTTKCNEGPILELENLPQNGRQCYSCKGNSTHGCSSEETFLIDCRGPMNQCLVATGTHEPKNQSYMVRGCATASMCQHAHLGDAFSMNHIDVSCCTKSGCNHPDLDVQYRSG

T3 sequence (Q03405 23-303 limits assumed): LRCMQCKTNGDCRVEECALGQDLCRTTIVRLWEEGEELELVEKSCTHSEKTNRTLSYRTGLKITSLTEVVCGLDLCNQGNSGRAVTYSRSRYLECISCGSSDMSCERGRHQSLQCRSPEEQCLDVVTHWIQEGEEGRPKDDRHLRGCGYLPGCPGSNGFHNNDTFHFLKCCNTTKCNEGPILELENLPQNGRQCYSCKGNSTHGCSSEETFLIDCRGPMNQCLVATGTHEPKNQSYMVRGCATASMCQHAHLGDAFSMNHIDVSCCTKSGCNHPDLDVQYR

binding result [1]: no binding | kon [2]: 570000 M⁻¹ s⁻¹ | koff [3]: 0.018 s⁻¹
B1: Human CYTL1-alkaline phosphatase fusion protein (other)
chain: TPPTCYSRMRALSQEITRDFNLLQVSEPSEPCVRYLPRLYLDIHNYCVLDKLRDFVASPPCWKVAQVDSLKDKARKLYTIMNSFCRRDLVFLLDDCNALEYPIPVTTVLPDRQR
notes: Expressed in 293 cells from a pRK5-based vector and used as cell-conditioned medium; also called CYTL1-AP; human CYTL1-AP; not shown: Human placental alkaline phosphatase (AP)

Kd [4]: 1100 nM | Kd [5]: ~1500 nM
B2: Purified human CYTL1 (cytokine-like 1), expressed in insect cells, poly-histidine tag cleaved (ligand)
chain: B1 chain
notes: also called purified CYTL1; PRO4425
